Test results taken from PMC4837482, “The complex binding mode of the peptide hormone H2 relaxin to its receptor RXFP1” (Nature Communications, 2016).
Numbering of substitutions follows the chain as printed.

How the values were obtained:
Experiment in all cases: cAMP activity assay (pCRE β-galactosidase reporter), transfected HEK293T cells
Format in all cases: cell-based
RXFP1 F50A = biological target: T1, RXFP1 F50A (Homo sapiens, UniProt Q9HBX9, F72A); settings: construct F50A, ±s.e.m.
T1 construct: expressed in transfected cells; host or cells: HEK293T
T1 sequence (Q9HBX9 23-757 F72A limits assumed): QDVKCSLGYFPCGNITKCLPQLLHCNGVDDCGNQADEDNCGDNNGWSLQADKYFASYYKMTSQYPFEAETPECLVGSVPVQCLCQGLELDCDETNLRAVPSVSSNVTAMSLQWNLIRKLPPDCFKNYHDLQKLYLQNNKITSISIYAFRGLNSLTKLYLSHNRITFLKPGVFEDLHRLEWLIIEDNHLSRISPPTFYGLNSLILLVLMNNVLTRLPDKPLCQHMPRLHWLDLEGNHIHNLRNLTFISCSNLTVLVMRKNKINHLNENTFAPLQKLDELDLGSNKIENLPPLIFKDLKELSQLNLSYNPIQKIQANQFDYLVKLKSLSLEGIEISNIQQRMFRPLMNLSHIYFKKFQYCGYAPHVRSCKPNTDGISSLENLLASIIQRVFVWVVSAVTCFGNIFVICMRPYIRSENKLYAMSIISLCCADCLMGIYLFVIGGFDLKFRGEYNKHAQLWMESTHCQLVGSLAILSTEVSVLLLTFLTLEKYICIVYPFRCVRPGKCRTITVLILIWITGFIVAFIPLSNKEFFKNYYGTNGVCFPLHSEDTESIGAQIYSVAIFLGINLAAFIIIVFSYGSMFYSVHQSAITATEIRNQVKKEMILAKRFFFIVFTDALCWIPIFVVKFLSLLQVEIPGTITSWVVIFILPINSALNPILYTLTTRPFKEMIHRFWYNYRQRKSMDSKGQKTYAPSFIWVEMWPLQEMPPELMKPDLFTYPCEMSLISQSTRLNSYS
Summary of the method: (§1)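 Absorbance at 570 nm from β-galactosidase cleavage of chlorophenol red-β-D-galactopyranoside, expressed as percentage of the maximal 5 μM Forskolin response (mean ± s.e.m., ≥3 experiments in triplicate). Stimulant was H2 relaxin in minimal media containing 1% DMSO.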

RXFP1 C40A^ins = biological target: T2, RXFP1 C40A^ins (Homo sapiens, UniProt Q9HBX9, INS62A); settings: construct C40A^ins
T2 construct: cells expressing full-length RXFP1 and mutants; expressed in transfected cells; host or cells: HEK293T
T2 sequence (Q9HBX9 with tags, fused parts or gaps INS62A limits assumed): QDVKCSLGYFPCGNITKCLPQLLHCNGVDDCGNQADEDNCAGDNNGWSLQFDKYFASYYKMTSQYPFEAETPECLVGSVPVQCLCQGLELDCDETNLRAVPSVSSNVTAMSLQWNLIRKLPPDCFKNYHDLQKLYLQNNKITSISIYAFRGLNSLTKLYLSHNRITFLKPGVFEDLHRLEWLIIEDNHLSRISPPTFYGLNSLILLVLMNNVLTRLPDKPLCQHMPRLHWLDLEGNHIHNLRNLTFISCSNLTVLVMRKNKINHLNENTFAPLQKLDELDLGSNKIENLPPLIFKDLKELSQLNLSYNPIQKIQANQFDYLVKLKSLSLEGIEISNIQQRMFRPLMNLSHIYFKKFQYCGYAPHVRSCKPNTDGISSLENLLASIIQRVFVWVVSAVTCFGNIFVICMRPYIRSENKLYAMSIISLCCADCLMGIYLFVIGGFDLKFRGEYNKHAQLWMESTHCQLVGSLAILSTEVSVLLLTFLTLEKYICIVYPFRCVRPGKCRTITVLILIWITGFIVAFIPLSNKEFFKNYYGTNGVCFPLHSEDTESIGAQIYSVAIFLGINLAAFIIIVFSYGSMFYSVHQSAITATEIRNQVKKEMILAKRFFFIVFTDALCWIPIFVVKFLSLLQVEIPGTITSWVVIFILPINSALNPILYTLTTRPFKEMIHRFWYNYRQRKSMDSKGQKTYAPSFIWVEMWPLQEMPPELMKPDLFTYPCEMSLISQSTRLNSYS
Summary of the method: as §1

RXFP1 D42A = biological target: T3, RXFP1 D42A (Homo sapiens, UniProt Q9HBX9, D64A); settings: construct D42A
T3 construct: transiently transfected human embryonic kidney (HEK) 293T cells expressing full-length RXFP1 and mutants; expressed in transfected cells; host or cells: HEK293T
T3 sequence (Q9HBX9 23-757 D64A limits assumed): T1 sequence (Q9HBX9 23-757 F72A limits assumed) with D42A, A50F
Summary of the method: as §1

[1] = percentage of maximum response to 5 μM Forskolin

## H2 relaxin: two-chain 6-kDa peptide hormone structurally related to insulin; recombinant human gene-2 H2 relaxin provided by Corthera
RXFP1 F50A; cAMP reporter
  H2 relaxin pEC50: 9.45±0.07 (4)
RXFP1 F50A; [1]
  H2 relaxin Emax: 91.9±2.1 (4) %
RXFP1 C40A^ins; cAMP reporter
  H2 relaxin pEC50: No activity
RXFP1 C40A^ins; [1]
  H2 relaxin Emax: No activity
RXFP1 D42A
  H2 relaxin pEC50: <6 (4)
